Consider 3 substances from paper PMC7484505.

One test concerns the target hNav1.7^GFP (human) (UniProt Q15858).
Test [1] has as its target hNav1.7/A1632E^His-StrepII (human) (UniProt Q15858).
A further test addresses hNav1.7/A1632E (human) (UniProt Q15858).

For “hNav1.7/R896Q (from UniProt Q15858-3 1-1977) (natural protein)”, the peak current density (whole-cell patch clamp) of the Nav1.7 stable HEK cell line (untagged hNav1.7/WT) on co-expression of hNav1.7/R896Q, against the stable line alone in the test with hNav1.7^GFP (human) came out at 31%.
Take “hNav1.7/A1632E^His-StrepII (from UniProt Q15858-3 1-1977) (natural protein)”: the maximal relative persistent current of hNav1.7/A1632E in X. laevis oocytes (TEVC), without against with co-injected difopein cRNA in test [1] is -13.6%.
“hNav1.7/A1632E (from UniProt Q15858-3 1-1977) (natural protein)” had a maximal relative persistent current of hNav1.7/A1632E in HEK293T cells (patch clamp), without against with co-expressed difopein with hNav1.7/A1632E (human) of 13.2%.
